Reference: patent publication US20030139374A1 (University of Texas, published 2003)

Columns and labels:
TNFα = conditions: cited from earlier work
[1] = system: cancer patients having progressive disease; conditions: human, in vivo; cited from earlier work
A20 lymphoma cells = assay: In vitro coagulation assay on A20 cells with B21-2/10H10 capture antibody; format: cell-based, mouse
[2] = system: HT29 (human colorectal carcinoma) xenograft; assay: HT29 xenograft necrosis after tTF constructs with Factor VIIa; design: species or system BALB/c nu/nu mice; conditions: mouse, in vivo, iv
[3] = system: HT29 human colorectal carcinomas; assay: Anti-tumor effects, HT29; format: in vivo, Nu/nu mice; conditions: large (1200 mm^3) tumors
Method: Anti-tumor effects were also observed in mice bearing HT29 human colorectal carcinomas. Nu/nu mice bearing large (1200 mm^3) tumors on their flanks were injected intravenously with tTF219 or PBS (control), and growth of the tumors was monitored each day for 10 days. The tumors in the tTF219 treated mice discontinued growth for about 7 days after treatment, whereas the tumors in mice treated with PBS continued to grow unchecked.

[4] = system: C1300 Muγ mouse neuroblastoma; assay: In vivo tumor thrombosis, C1300 Muγ; design: species or system BALB/c nu/nu mice
Description: (§1) Tumor test systems were of four types: i) 3LL mouse lung carcinoma growing subcutaneously in C57BL/6 mice; ii) C1300 mouse neuroblastoma growing subcutaneously in BALB/c nu/nu mice; iii) HT29 human colorectal carcinoma growing subcutaneously in BALB/c nu/nu mice; and iv) C1300 Muγ mouse neuroblastoma growing subcutaneously in BALB/c nu/nu mice. The C1300 Muγ tumor is an interferon-γ secreting transfectant derived from the C1300 tumor (Watanabe et al, 1989).
(§2) To establish tumors, 10^6 to 1.5×10^7 tumor cells were injected subcutaneously into the right anterior flank of the mice. When tumors had grown to various sizes, mice were randomly assigned to different study groups. […] Fab′, or bispecific antibody. Other mice received equivalent quantities IgG, Fab′ or bispecific antibody alone. The injections were performed slowly into one of the tail veins over approximately 45 seconds, usually followed by 200 μl of saline.
(§3) Twenty-four hours after being injected with tTF or immunoglobulin-tTF conjugates, the mice were anesthetized with metophane and were exsanguinated by perfusion with heparinized saline. Tumors and normal tissues were excised and immediately fixed in 3% (v/v) formalin. Paraffin sections were cut and stained with hematoxylin and eosin. Blood vessels having open lumens containing erythrocytes and blood vessels containing thrombi were counted. […]

[5] = system: C1300 mouse neuroblastoma; assay: In vivo tumor thrombosis, C1300; design: species or system BALB/c nu/nu mice; conditions: large tumors (>1000 mm^3); 24 hours after injection
Description: as §1, §2, §3

C1300 Muγ tumors = assay: Anti-tumor effects (tumor growth), C1300 Muγ; format: in vivo, nu/nu mice; conditions: 300 mm^3 at start
Method: The tumor test systems were: i) L540 human Hodgkin's disease tumors growing in SCID mice; ii) C1300 Muγ (interferon-secreting) neuroblastoma growing in nu/nu mice; iii) H460 human non-small cell lung carcinoma growing in nu/nu mice. To establish solid tumors, 1.5×10^7 tumor cells were injected subcutaneously into the right anterior flank of SCID or BALB/c nu/nu mice (Charles River Labs., Wilmingham, Mass.). When the tumors had grown to various diameters, mice were assigned to different experimental groups, each containing 4 to 9 mice.
Other mice received equivalent quantities of bispecific antibody alone. The injections were performed over ˜45 seconds into one of the tail veins, followed by 200 μl of saline. The infusions were repeated six days later. Perpendicular tumor diameters were measured at regular intervals and tumor volumes were calculated.
Mice bearing small (300 mm^3) C1300 Muγ tumors were injected intravenously with 16-20 μg tTF219. The treatment was repeated one week later. […] One week after the second treatment with tTF219, tumors were 60% of the size of tumors in mice receiving diluent alone. The greater effectiveness of the second injection probably derives from the greater thrombotic action of tTF219 on vessels in large tumors, observed above. […]

3LL mouse lung carcinoma = assay: In vivo tumor thrombosis, 3LL; design: species or system C57BL/6 mice; conditions: large (>800 mm^3) tumors
Description: as §1, §2, §3

L540 Hodgkin tumors = assay: Annexin V inhibition of coaguligand-induced thrombosis in vivo; design: species or system SCID mice
Method: The ability of Annexin V to inhibit coaguligand-induced thrombosis in vivo was examined in L540 Hodgkin-bearing SCID mice.
Four hours after the last injection mice were anesthetized and perfused with heparinized saline. Tumors were removed, fixed with 4% formalin, paraffin-embedded and stained with hematoxylene-eosin. The number of thrombosed and non-thrombosed blood vessels were counted and the percentage of thrombosis was calculated.

[6] = system: IL-1α-stimulated bEnd.3 cells; assay: Factor Xa formation by coaguligand on bEnd.3 cells, chromogenic assay; format: cell-based, mouse; conditions: 10 μg per ml
Method: The ability of Annexin V to affect Factor Xa formation induced by coaguligand was determined by a chromogenic assay. […] Annexin V was added at concentrations ranging from 0.1 to 10 μg/ml and cells were incubated for 30 min. before addition of diluted Proplex T. The amount of Factor Xa generated in the presence or absence of Annexin V was determined. Each treatment was performed in duplicate and repeated at least twice.

[7] = target: T1, recombinant human VEGF (VEGF165) (human, UniProt P15692-4 27-191, biotinylated in the capture and competition ELISAs); assay: capture ELISA, antibody-coated wells, biotinylated VEGF titrated
T1 construct: also called free VEGF; VEGF-biotin
T1 sequence (P15692 other isoform, or with tags, fused parts or gaps limits assumed): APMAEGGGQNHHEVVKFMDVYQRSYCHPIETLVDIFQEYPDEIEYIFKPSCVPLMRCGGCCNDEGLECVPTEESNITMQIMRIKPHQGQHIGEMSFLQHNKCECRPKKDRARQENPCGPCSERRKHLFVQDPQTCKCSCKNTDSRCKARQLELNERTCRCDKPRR

[8] = target: T1, recombinant human VEGF (VEGF165); assay: competition ELISA, 1 nM VEGF on VEGFR1 (Flt-1/Fc) wells, 100 fold molar excess of 2C3
[9] = target: T1, recombinant human VEGF (VEGF165); assay: competition ELISA, 1 nM VEGF on VEGFR1 (Flt-1/Fc) wells, 1000 fold molar excess of 2C3
VEGF:Flk-1 complex = target: T2, VEGF:Flk-1 complex (human; mouse, UniProt P15692 27-191; P35918 20-762, biotinylated); assay: capture ELISA, antibody-coated wells, soluble VEGF:sFlk-1-biotin titrated
T2 construct: Formed overnight at 4 C at a molar ratio of sFlk-1 to VEGF of 2.5:1; also called VEGF:receptor complex; VEGF:sFlk-1
T2 sequence (P15692 other isoform, or with tags, fused parts or gaps limits assumed, chain 1 of 2): as the sequence (P15692 other isoform, or with tags, fused parts or gaps limits assumed) above
T2 sequence (P35918 20-762 limits assumed, chain 2 of 2): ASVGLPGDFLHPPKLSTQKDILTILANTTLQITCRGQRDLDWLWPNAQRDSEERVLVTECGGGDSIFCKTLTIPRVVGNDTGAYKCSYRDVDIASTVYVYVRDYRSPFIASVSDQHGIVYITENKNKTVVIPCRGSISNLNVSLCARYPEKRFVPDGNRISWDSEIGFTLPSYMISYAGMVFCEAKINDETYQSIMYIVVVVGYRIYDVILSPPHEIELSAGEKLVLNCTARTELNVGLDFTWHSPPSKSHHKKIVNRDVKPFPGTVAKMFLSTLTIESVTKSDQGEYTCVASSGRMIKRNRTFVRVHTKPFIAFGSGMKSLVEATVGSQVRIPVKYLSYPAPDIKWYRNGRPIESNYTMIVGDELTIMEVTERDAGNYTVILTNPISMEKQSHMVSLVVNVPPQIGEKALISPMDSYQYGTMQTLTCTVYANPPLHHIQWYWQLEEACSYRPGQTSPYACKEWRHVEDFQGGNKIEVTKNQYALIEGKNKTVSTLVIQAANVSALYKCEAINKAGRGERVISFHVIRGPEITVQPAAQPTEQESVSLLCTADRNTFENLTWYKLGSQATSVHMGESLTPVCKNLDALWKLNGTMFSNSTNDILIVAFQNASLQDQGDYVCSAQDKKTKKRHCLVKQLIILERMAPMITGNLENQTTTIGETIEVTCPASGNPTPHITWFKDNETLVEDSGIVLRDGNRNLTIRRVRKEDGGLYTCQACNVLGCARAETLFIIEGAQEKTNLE

Q: Which “fold less effective than endotoxin in inducing TNFα” value (TNFα) does the source give for `Cc1ccc2c(=O)c3cccc(CC(=O)O)c3oc2c1C` [DMXAA] here?
A: 20 fold

Q: For `NC(=O)c1nnn(Cc2cc(Cl)c(C(=O)c3ccc(Cl)cc3)c(Cl)c2)c1N` [CAI, carboxyamidotriazole], which “patients with disease stabilization” value [1] is on record?
A: 49%

B1: tTF219: residues 1-219 of TF plus an additional glycine at the N-terminus (protein)
chain: GSGTTNTVAAYNLTWKSTNFKTILEWEPKPVNQVYTVQISTKSGDWKSKCFYTTDTECDLTDEIVKDVKQTYLARVFSYPAGNVESTGSAGEPLYENSPEFTPYLETNLGQPTIQSFEQVGTKVNVTVEDERTLVRRNNTFLSLRDVFGKDLIYTLYYWKSSSSGKKTAKTNTNEFLIDVDKGENYCFSVQAVIPSRTVNRKSTDSPVECMGQEKGEFRE
Q: For B1, which coagulation time (A20 lymphoma cells; 10^−10 M tTF219, absence of Factor VIIa) is on record?
A: 60 s

Q: What about the coagulation time (A20 lymphoma cells; 10^−10 M tTF219, presence of 13.5 nM Factor VIIa) of the same molecule?
A: 20 s

Q: What about the “necrosis, average area as percentage of total tumor area” value [2] of the same molecule?
A: some necrosis

Q: What about the “time tumors discontinued growth after treatment” value [3] of the same molecule?
A: about 7 days

Q: What about the “thrombosis of tumor vessels” value ([4]; 24 hours after injection) of the same molecule?
A: practically all vessels in all regions of the tumor were thrombosed

Q: What about the “effect on vessels in small tumors” value ([4]; small (<500 mm^3) C1300 and C1300 Muγ) of the same molecule?
A: largely unaffected

Q: What about the “thrombosis of tumor vessels” value [5] of the same molecule?
A: virtually all vessels were thrombosed

Q: And the “tumor size relative to mice receiving diluent alone” value (C1300 Muγ tumors; 16-20 μg i.v., repeated one week later, one week after the second treatment)?
A: 60%

Q: And the “tumor size relative to controls receiving diluent alone” value (C1300 Muγ tumors; treatment repeated 6 days later, fourteen days after the first injection)?
A: 75%

Q: What about the “tumor vessels thrombosed, average” value (3LL mouse lung carcinoma) of the same molecule?
A: 62%

B2: Annexin V: binds to PS with high affinity (protein, UniProt P08758 2-320, looked up)
Annexin A5: AQVLRGTVTDFPGFDERADAETLRKAMKGLGTDEESILTLLTSRSNAQRQEISAAFKTLFGRDLLDDLKSELTGKFEKLIVALMKPSRLYDAYELKHALKGAGTNEKVLTEIIASRTPEELRAIKQVYEEEYGSSLEDDVVGDTSGYYQRMLVVLLQANRDPDAGIDEAQVEQDAQALFQAGELKWGTDEEKFITIFGTRSVSHLRKVFDKYMTISGFQIEETIDRETSGNLEQLLLAVVKSIRSIPAYLAETLYYAMKGAGTDDHTLIRVMVSRSEIDLFNIRKEFRKNFATSLYSMIKGDTSGDYKKALLLLCGEDD
Q: Which “effect of pre-treatment on coaguligand-induced anti-tumor effects” value (L540 Hodgkin tumors; 100 μg Annexin V 2 hours before 40 μg coaguligand) does the source give for B2 here?
A: completely abolished

Q: What about the “effect on tumor morphology” value (L540 Hodgkin tumors; 100 μg Annexin V alone) of the same molecule?
A: did not alter tumor morphology

Q: And the “inhibition of factor Xa production” value [6]?
A: 58%

B3: anti-VEGF antibody 2C3 (antibody, V domains shown)
VH: QVQLQESGPELVKPGASVKMSCKASGYTFTSYVFHWVKQKPGQGLEWIGYINPYNDVTKYNEKFKGKATLTSDKSSSTAYMELSSLTSEDSAVYYCASYYGSSYGYYAMDDWGQGTTVTVSS
VL: DIQLTQSPASLSVSAGEKVTMSCKSSQSLLNSGNQKNYLAWYQQKPGQPPKLLIHGASTRESGVPDRFTGSGSGTDFTLTISSVQAEDLAVYYCQNDYSYPLTFGAGTKLELKR
Q: With B3 as the molecule, how does the EC50 [7] read?
A: 1 nM

Q: And the “percent of VEGF bound to VEGFR1-coated wells relative to no 2C3” value [8]?
A: 92%

Q: And the “percent of VEGF bound to VEGFR1-coated wells relative to no 2C3” value [9]?
A: 105%

Q: What about the EC50 (VEGF:Flk-1 complex) of the same molecule?
A: 150 nM
